Paper PMC11476048 (Nature, 2024)
Residue numbers refer to the chain shown, from its start. Names may count otherwise. One block for each binder: values may come before it.

Assays:
SEC-MALS = biological target: the molecule itself; test: SEC-MALS
[1] = biological target: T1, E. aridi E1^BilD (1-507, C417A) (Ensifer aridi TW10, C417A); test: SEC-MALS
T1 chain: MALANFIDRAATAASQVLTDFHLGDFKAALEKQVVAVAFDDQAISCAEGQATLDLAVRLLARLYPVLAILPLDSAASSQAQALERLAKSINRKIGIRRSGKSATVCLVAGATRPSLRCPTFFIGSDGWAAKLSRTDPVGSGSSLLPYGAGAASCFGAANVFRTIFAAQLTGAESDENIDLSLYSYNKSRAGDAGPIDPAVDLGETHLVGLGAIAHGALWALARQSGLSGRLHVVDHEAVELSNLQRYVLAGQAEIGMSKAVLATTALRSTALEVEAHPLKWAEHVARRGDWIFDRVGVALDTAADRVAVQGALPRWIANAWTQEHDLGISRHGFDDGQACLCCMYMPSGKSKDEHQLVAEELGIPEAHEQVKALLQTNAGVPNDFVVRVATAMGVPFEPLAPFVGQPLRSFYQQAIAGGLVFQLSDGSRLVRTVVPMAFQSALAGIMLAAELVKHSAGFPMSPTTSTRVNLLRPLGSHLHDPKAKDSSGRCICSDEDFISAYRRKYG

B1: E. aridi E2^BilB (1-181, wild type) (enzyme, Ensifer aridi TW10)
chain: MPELQTVDPEVSRAKFDREISRFRPYADAYRMQGCFLIEESFPSAFFIFASPKVKPRVIGAAIEIDFTNYDLRPPSVVFVDPFTRQPIARKDLPLNMLRRPQLPGTPPEMISNLIQQNAVSLTDFIQANSLQDSPFLCMAGVREYHDNPAHSGDPWLLHRGSGEGCLAFILDKIIKYGTGP
stoichiometry N (SEC-MALS): 2
binding result [1]: binds

B4: E. aridi Ubl^BilA (17-97) (domain or fragment, Ensifer aridi TW10)
chain: KIEIIVVVNGQPTQVEANPNQPLHVVRTKALENTQNVAQPPDNWEFKDEAGNLLDVDKKIGDFGFANTVTLFLSLKAGVAG
binding result [1]: binds

More lines, now with the values ahead:

binding result [1]: binds
B2: E. aridi E2^BilB (1-181) Mutant 2 (F36R/I38A/F46K/I48A/I59K/F83E) (enzyme, Ensifer aridi TW10)
chain: B1 chain with F36R, I38A, F46K, I48A, I59K, F83E

binding result [1]: binds
B3: E. aridi E2^BilB (1-181) Mutant 1 (F36R/I48A/I59K/F83E) (enzyme, Ensifer aridi TW10)
chain: B1 chain with F36R, I48A, I59K, F83E
